± gives the uncertainty stated by the source.

A short description of this series: amyloid nucleation score (Sup35N fusion, yeast selection) (log enrichment); library NNK1; higher = more nucleation; inactive = no reads after selection. In short, it runs like this: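 Using DiMSum, nucleation scores were taken as the log enrichment of output over input reads, centred on the mode score of non-aggregating sequences. The input and output reads came from Illumina sequencing of plasmid inserts, with sequences under 100 input reads excluded. The yeast were psi-negative, expressed Sup35N fused to peptides of 20 random codons, were induced with 100 μM copper sulfate for 24 hours, and were grown 7 days at 30°C on medium lacking adenine and uracil.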
Take DIRCGLDGNWVSSFVRQQGS: the amyloid nucleation score entry is “inactive”.

The substance IYASSLTDGFTVVWCLNQY gave an amyloid nucleation score of 5.05 ± 0.07.

Substance RNPTFFAMCSMCWLSTT showed an amyloid nucleation score of 0.852 ± 0.97.

In the case of CFKFARGGVLI, the amyloid nucleation score amounted to 1.32 ± 0.66.

As to PIEHDEWLTVMVYCDGRLLA, the amyloid nucleation score was -0.894 ± 2.4.

Substance PAVAGEWNARMGWEATRYKA came in with an amyloid nucleation score of 0.669 ± 0.56.

With IFSLCSVLSSNIEECPS, the amyloid nucleation score was -0.257 ± 0.8.

For the substance PAPLQIRNMSSNAKTR, the amyloid nucleation score entry was “inactive”.

For IYYGQGICLVFAFNLLCNVL, the amyloid nucleation score was 6.261 ± 0.048.

The substance SNMLHWSVRMGHGWW gave an amyloid nucleation score of 0.184 ± 1.

As to ADDACVSET, the amyloid nucleation score result is “inactive”.

Take TQVIAPVVCMAIDYCANITV: the amyloid nucleation score was determined as 4.96 ± 0.099.

LCGHF had an amyloid nucleation score of 4.35 ± 0.051.

Regarding IGCKCDIFVCNCISVCYVGA, the amyloid nucleation score came out at 4.3 ± 0.16.

Substance TRKLFTFMLDRMYLMVGRRL displayed an amyloid nucleation score of -0.294 ± 0.6.

The substance MNVVILEAYGRSPIGMQAFF had an amyloid nucleation score of 2.59 ± 0.18.

The substance SPVLIDVRGM had an amyloid nucleation score of -0.413 ± 0.5.

TARRKSYDIFMLIMWFVAYY had an amyloid nucleation score of 2.53 ± 0.12.

In turn, SGYWAPINLTGVMDS returned an amyloid nucleation score of 0.053 ± 1.1.

On to FSSWQGMGKQYWPERIRCAD, for which the amyloid nucleation score was 0.425 ± 0.46.

On to TSSWQVPVNAPEVN, for which the amyloid nucleation score result is “inactive”.

For SVLCELRV, the amyloid nucleation score was -0.182 ± 0.36.

In the case of SDSGPTALNVYFPGTCQGNS, the amyloid nucleation score result is “inactive”.

Take GQHSFGAECTVQSCGWGCRW: the amyloid nucleation score is 1.33 ± 0.34.

For the substance NSINFFNMFVYWL, the amyloid nucleation score came to 6.26 ± 0.056.

As to FGESPH, the amyloid nucleation score was determined as 0.494 ± 0.74.

AAGHVAVAIRNRVVIARSRT: the amyloid nucleation score turned out to be 3.4 ± 0.11.

Regarding VLRRLRSWRKVELENNRGKM, the amyloid nucleation score result is “inactive”.

RLARWPEPLIRCFAS returned an amyloid nucleation score of 0.594 ± 0.55.

On to CYNTRVPFGMPLKRTPYRSR, for which the amyloid nucleation score was -0.509 ± 1.1.

QSYTLYMMSLFKS gave an amyloid nucleation score of -0.34 ± 0.55.

As to TASGVDIVRRGCPRLVMLVV, the amyloid nucleation score was -0.42 ± 0.43.

Substance LSCWTCNRFYRGGLLVCMYP returned an amyloid nucleation score of -0.713 ± 0.46.

As to SCILFY, the amyloid nucleation score worked out at 1.75 ± 0.14.

TRVKQMEVVSWTRHHWPRCF had an amyloid nucleation score of -0.623 ± 0.47.

The substance RGNANIVEDSLFVVIGGRKV showed an amyloid nucleation score of 4.25 ± 0.074.

With ETALVVLTRVTEGCGRGQKT, the amyloid nucleation score was 0.668 ± 0.77.

Regarding AKVRKNYTFLHLSPLGRGFD, the amyloid nucleation score worked out at 0.321 ± 0.48.

YSVDQYSNTMRLTLHMLVFV: the amyloid nucleation score was determined as 0.455 ± 0.79.

For the substance SPSYQRCLQMLEKIWKDLNH, the amyloid nucleation score was 0.497 ± 0.31.

As to QMREFCLNACSINPRFLWAS, the amyloid nucleation score amounted to 1.51 ± 0.31.

CRCMLSLLRIRLGVSSARLG displayed an amyloid nucleation score of 0.143 ± 0.49.

Substance LFTRIFSLSMYVPNCFRYAY registered an amyloid nucleation score of 1.02 ± 0.39.

In the case of RRRCYVVSCCLVALACLACF, the amyloid nucleation score amounted to 0.412 ± 0.8.

In turn, RMFEVARSSKRSLFHSILET came in with an amyloid nucleation score of 0.109 ± 0.26.

Substance LALFIDWQ displayed an amyloid nucleation score of 1.53 ± 0.53.

Regarding VWVHD, the amyloid nucleation score was found to be 0.257 ± 0.26.

In the case of MSNIVALHCGSFFTDYECIW, the amyloid nucleation score amounted to 7.608 ± 0.046.

Turning to TCIARHLQILSVNRCCVRFA, the amyloid nucleation score is 0.062 ± 0.44.

In turn, FDYPDGDVVVNKFDSDVCYR gave an amyloid nucleation score of 0.616 ± 0.84.

For MAKSGNEI, the amyloid nucleation score amounted to 0.062 ± 0.79.

As to KFIIVLILDCITIHHSVVVS, the amyloid nucleation score is -0.819 ± 0.67.

Regarding IEIKTIFVSFLFCECKFCGY, the amyloid nucleation score stood at 5.63 ± 0.057.

Take YSVPVCGDMLTGWYCNKYKY: the amyloid nucleation score result was “inactive”.

ASEVCKY: the amyloid nucleation score was found to be 0.375 ± 0.79.

NSLLGYLYSYVVFYREHIVI yielded an amyloid nucleation score of -0.326 ± 1.2.

Regarding MLLALVIEADRRRWSVNGMY, the amyloid nucleation score turned out to be 2.93 ± 0.18.

Consider FLYVVARY, for which the amyloid nucleation score came out at 0.19 ± 0.71.

For the substance DVAARVQKNCPVIIGAIRSK, the amyloid nucleation score was 0.091 ± 1.6.

In turn, RRDDVCELLVIP displayed an amyloid nucleation score of 0.351 ± 0.51.

GHGALSCMMNFHSTGGKVKS: the amyloid nucleation score was 0.667 ± 0.68.

Take THWGRVELMFFRSSKHRLT: the amyloid nucleation score was -0.334 ± 1.

MIRGLPQMMNWVP: the amyloid nucleation score was 0.758 ± 0.38.

Substance TFVSLATTDFPPNFSLKLFV displayed an amyloid nucleation score of -0.579 ± 0.49.

In turn, KSPRVSVGTASVSWRKKFTW returned an amyloid nucleation score of 0.2 ± 0.74.

On to RKLFAY, for which the amyloid nucleation score entry is “inactive”.

The substance PQGLTSSSMGLTSANHSAA gave an amyloid nucleation score of 0.637 ± 0.88.

For SRFWKRVHAYTAVISEMYSA, the amyloid nucleation score was -0.132 ± 0.52.

VILTYGTVRY: the amyloid nucleation score was 0.38 ± 0.59.

Substance CRRRPSSDELSVLWDAEGRY yielded an amyloid nucleation score of 0.009 ± 0.66.

Consider KNTCKQMV, for which the amyloid nucleation score came out at 0.242 ± 0.57.

SCAASGNLYVSSAGGVRGKR had an amyloid nucleation score of -0.734 ± 0.46.

For KQLDINRLTSDMS, the amyloid nucleation score entry is “inactive”.

The substance ALVTVIHAPVFYLWNAFYLC returned an amyloid nucleation score of 7.396 ± 0.048.

Take CFIIIQPCANGWWYRCRSCV: the amyloid nucleation score was -0.236 ± 0.38.

For the substance QPLLTQQK, the amyloid nucleation score was 0.086 ± 0.28.

In the case of CSRTMTWYP, the amyloid nucleation score is -1.14 ± 1.3.

Regarding LPGFWPFMSDTPLGHQIVA, the amyloid nucleation score is -1.07 ± 1.6.

In turn, IFLIMKNRTSILRPTGFLVS returned an amyloid nucleation score of -0.402 ± 0.49.

As to RDAVFGPAGVLQI, the amyloid nucleation score is -0.122 ± 1.6.

With DHITKHFIGV, the amyloid nucleation score result was “inactive”.

With RNWREVSYMIQVGW, the amyloid nucleation score is -0.186 ± 0.29.

SFKRYRRYRSKRVRRIGRGR had an amyloid nucleation score of 0.677 ± 0.52.

Turning to MYSLVCNHCAQSISIPSRWS, the amyloid nucleation score stood at 3.97 ± 0.11.

The substance PWCQVRHSSYRASWSSVVVN registered an amyloid nucleation score of -0.254 ± 0.48.

Turning to SFFSSVVDF, the amyloid nucleation score worked out at 0.2 ± 0.63.

In the case of PGCIICRVMTEANSRCLVRA, the amyloid nucleation score worked out at 0.141 ± 1.2.

MLSVRTGISGLQSVRTKALA had an amyloid nucleation score of -0.33 ± 0.51.

QANVDCNVHPVTRML displayed an amyloid nucleation score of 0.085 ± 0.46.

For the substance TWRQNSRGNRASNCYVRSLS, the amyloid nucleation score entry was “inactive”.

SRLSQDPRTSSAIMSWLRYS came in with an amyloid nucleation score of 0.886 ± 1.1.

With MVLFKELIMVFTQARAS, the amyloid nucleation score worked out at 0.156 ± 0.28.

The substance WADTPRQLGCSSSSTISCSL yielded an amyloid nucleation score of -0.216 ± 0.4.

For KETLGIQ, the amyloid nucleation score amounted to 1.19 ± 0.52.

SNAPFRKAQQRGLYKWWSWR yielded an amyloid nucleation score of 0.728 ± 0.54.

Take LHNERRSVISTPYRQSEAGL: the amyloid nucleation score worked out at 0.707 ± 0.43.

In turn, VIKMFRRSDDIVVSKPLRE yielded an amyloid nucleation score of -0.3 ± 0.5.

Take AVFIGCVNAGS: the amyloid nucleation score was 0.621 ± 0.39.

Turning to HVVFTKMCSNTTET, the amyloid nucleation score was determined as 0.026 ± 0.49.

Take KHAYFSLIRVSNWKWNSVRV: the amyloid nucleation score was -0.027 ± 0.56.

MKLWMEMRWGRG gave an amyloid nucleation score of 5.41 ± 0.064.

FADERIGYSIK: the amyloid nucleation score is -0.336 ± 0.44.

In the case of VYNWRLMEYHRGWDHFCYLS, the amyloid nucleation score was -0.559 ± 0.33.

LSAWPTIEEMVPAHMKTTHA showed an amyloid nucleation score of 0.526 ± 0.54.

PCMFYWTVLGRLRTKPPSGV came in with an amyloid nucleation score of -0.153 ± 0.44.

The substance MCASASTSKMLVWVWTPYFG registered an amyloid nucleation score of 2.14 ± 0.13.

Regarding SRRVQLYVLGFRGIKSGTFL, the amyloid nucleation score is -0.066 ± 0.62.

In turn, LAYVHTVKVDGPWKHMNVWY came in with an amyloid nucleation score of 1.22 ± 0.54.

As to VVCARVLRWEVGYVFGKIER, the amyloid nucleation score result was “inactive”.

On to LGSDDLLKVSFFFVSLGS, for which the amyloid nucleation score was -0.087 ± 1.2.

Consider RLYPL, for which the amyloid nucleation score stood at 0.908 ± 0.34.

In turn, NTFYCCFLFFY gave an amyloid nucleation score of 6.517 ± 0.044.

Substance MNCLTSRILNVLIGSGCN gave an amyloid nucleation score of 3.33 ± 0.076.

In the case of TSWGNVDGCYNGRTLVLLDF, the amyloid nucleation score was -0.316 ± 0.67.

In turn, LAITDKCSRALSLLSCPDF displayed an amyloid nucleation score of 0.265 ± 0.63.

For the substance YFWLNTNTLCSYWRMRHWVS, the amyloid nucleation score was found to be 0.524 ± 0.61.

The substance WETGIRMFVKCRR returned an amyloid nucleation score of 0.906 ± 0.33.

In turn, FMGVINGEITLVNSFVTYMR displayed an amyloid nucleation score of 7.768 ± 0.051.

As to QYFPF, the amyloid nucleation score was -1.26 ± 1.2.

Consider ITNCEAEEPDCWPDE, for which the amyloid nucleation score was -0.357 ± 0.35.

MCGDIPQ: the amyloid nucleation score amounted to 0.35 ± 0.74.

Consider VMYLSGCHLRLKCYLGSFNR, for which the amyloid nucleation score amounted to 5.51 ± 0.076.

The substance SAVGAIDANIYKSDGYSWG came in with an amyloid nucleation score of -0.879 ± 0.58.

TEDDYYSGLRRGKDKEGCSF returned an amyloid nucleation score of -0.084 ± 0.44.

In the case of SGPFSTYMTRFFLDFGSVDC, the amyloid nucleation score is -1.71 ± 2.4.

For the substance NMTFSMPSNINCPFLGLR, the amyloid nucleation score was determined as 0.29 ± 0.47.

In turn, APSSKF gave an amyloid nucleation score of 0.062 ± 1.1.

The substance FSLFDGMVLVNS showed an amyloid nucleation score of -0.281 ± 0.39.

Regarding IVSTMCPRTDGVPCDNF, the amyloid nucleation score was -0.035 ± 0.36.

Consider RTCDIRSLHPTTEGSETCGR, for which the amyloid nucleation score came out at 0.306 ± 0.56.

Substance QRMFFYNIIVWNVN yielded an amyloid nucleation score of 2.79 ± 0.14.

Substance ITSYSFIRSNGSVMGSWGSV showed an amyloid nucleation score of -0.092 ± 0.65.

As for VIFSNWVTAGFACFMHLLVR, the amyloid nucleation score amounted to 0.398 ± 0.9.

With FTSVITLMFNYNTFWKKSSY, the amyloid nucleation score came to 1.12 ± 0.27.

As to EDKYFA, the amyloid nucleation score worked out at 0.323 ± 0.69.

With MSMVNKTSWCYLFCNLRVVY, the amyloid nucleation score was -1.08 ± 0.86.

The substance RDFYCFWLG showed an amyloid nucleation score of 4.05 ± 0.08.

DAWGTVRYSIGFKGVVAMTS displayed an amyloid nucleation score of 0.149 ± 0.29.

DWNVQGQWFHQC showed an amyloid nucleation score of 0.677 ± 0.72.

Substance YMSVWFVTVSMDCVGRNSRT displayed an amyloid nucleation score of 4.19 ± 0.058.

Values taken from the supplement of paper PMC12042874.
